Reference: US20050266004A1 (published 2005)

How the values were obtained:
murine LTα = target: T1, murine LTα (murine, UniProt P09225 34-202, limits assumed); assay: EIA, recombinant protein coated at 1 µg/mL
T1 construct: Coated as recombinant protein in the EIA; used as 'murine LTα lysates' in the WEHI assay; also called murine LTα lysates
T1 sequence (looked up): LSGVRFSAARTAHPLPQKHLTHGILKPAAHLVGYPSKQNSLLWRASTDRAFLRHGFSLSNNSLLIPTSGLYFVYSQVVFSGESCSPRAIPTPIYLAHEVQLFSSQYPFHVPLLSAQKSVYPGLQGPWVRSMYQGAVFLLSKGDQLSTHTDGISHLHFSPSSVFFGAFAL
Protocol: (§1) Enzyme immunoassays (EIAs) were used to test hybridoma cell supernatants for the presence of murine anti-LTα Mabs. Briefly, plates were coated with rhuLTα at 10 μg/mL in PBS overnight. After washing in 0.15 M saline containing 0.02% (v/v) Tween 20, the wells were blocked with 1% (w/v) BSA in PBS for 1 hour at RT. Undiluted hybridoma supernatants were incubated on the plates for one hour at 37° C. The plates were washed and probed with HRP-conjugated goat anti-mouse IgG Fc specific antibody for one hour at 37° C. The plates were again washed and citrate-phosphate substrate solution (0.1 M citric acid and 0.2 M sodium phosphate, 0.01% H₂O₂ and 1 mg/mL OPD) was added for 15 minutes at RT. Stop solution (4N sulfuric acid) was then added and the OD's were read at 490 nm using an automated plate spectrophotometer. The anti-human LTα Mabs were assessed for their ability to cross-react with murine LTα or human TNFα. The recombinant proteins were coated on EIA plates at 1 μg/mL in the same manner described above. Purified Mabs were incubated on the plates in serial dilutions starting at […] for 1 hour at 37° C. The plates were washed, probed and processed as above. […] Eight different hybridoma clones that secrete a murine IgG1 κ Mab specifically binds to rhuLTα.

human TNFα = target: T2, human TNFα (human, UniProt P01375 77-233); assay: EIA, recombinant protein coated at 1 µg/mL
T2 construct: Coated as recombinant protein in the EIA
Protocol: as §1

[1] = target: T3, recombinant human lymphotoxin alpha (rhuLTα) (human, UniProt P01374 35-205); assay: SPR; Mab captured on immobilized anti-murine Fc antibody, rhuLTα in solution
T3 construct: also called human LTα; Soluble LTα
T3 sequence (looked up): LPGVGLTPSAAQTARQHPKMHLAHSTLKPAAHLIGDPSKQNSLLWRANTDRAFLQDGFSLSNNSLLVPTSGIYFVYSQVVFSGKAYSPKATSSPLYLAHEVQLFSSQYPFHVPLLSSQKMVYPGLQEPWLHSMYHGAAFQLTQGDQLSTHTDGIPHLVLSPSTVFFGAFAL
Protocol: The affinity of anti-human LTα Mabs for rhuLTα was determined using surface plasmon resonance technology. The murine Mabs were first captured on chips that contained immobilized polyclonal anti-murine Fc antibody. Buffer containing rhuLTα was then passed over the captured Mab molecules and the resulting change in the mass bound over time was recorded.

[2] = target: T3, recombinant human lymphotoxin alpha …; assay: cell-based or functional assay

T2 sequence (P01375 77-233 limits assumed): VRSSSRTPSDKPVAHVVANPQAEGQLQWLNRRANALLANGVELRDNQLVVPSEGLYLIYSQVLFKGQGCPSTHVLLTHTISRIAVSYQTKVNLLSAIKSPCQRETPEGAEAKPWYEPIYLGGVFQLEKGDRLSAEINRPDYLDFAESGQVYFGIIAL

B1: murine anti-human LTα Mab 4 (antibody, V domains shown)
VH: PGLVAPAQSLSITCTVSGFSLTSYGVHWVRQPPGKGLEWLGVIWAGGNTNYNSPLMSRLRIIKDNSKSQVFLKMNSLQADDTAMYYCVSHDVNNPFGYWGQGTLVTVSA
VL: DIQMTQTTSSLSASLGDRVTISCRASQDITNYLNWYQQKPDGTVKLLIYYTSRLHSGVPSRFSGSGSGTDYSLTISNLEQEDIATYFCQQGNTLPYTFGGGTRLEIK
notes: Tested as the murine IgG1 kappa hybridoma Mab; also called Mab number 4
For B1, the binding result (murine LTα) was “no binding (tested: serial dilutions starting at 25 µg/nL)”, the binding result (human TNFα) was “no binding (tested: serial dilutions starting at 25 µg/nL)” and the Kd [1] was 1.1 nM. The “IC50, inhibition of LTα-mediated WEHI 164 cell cytotoxicity, rhuLTα at 10 ng/mL” value [2] was 6.2 µg/mL, the “IC50, inhibition of WEHI 164 cell cytotoxicity, rhuLTα at 0.1 ng/mL” value [2] was 0.54 µg/mL and the “normalized molar ratio of Mab to rhuLTα at the IC50 value, rhuLTα at 0.1 ng/mL” value [2] was 1800 molar ratio Mab:rhuLTα.
